Data published in patent publication US20020127684.

Experiments:
GST-ATF2 = target: T1, GST-ATF2
T1 sequence (P15336 whole entry, species assumed, looked up): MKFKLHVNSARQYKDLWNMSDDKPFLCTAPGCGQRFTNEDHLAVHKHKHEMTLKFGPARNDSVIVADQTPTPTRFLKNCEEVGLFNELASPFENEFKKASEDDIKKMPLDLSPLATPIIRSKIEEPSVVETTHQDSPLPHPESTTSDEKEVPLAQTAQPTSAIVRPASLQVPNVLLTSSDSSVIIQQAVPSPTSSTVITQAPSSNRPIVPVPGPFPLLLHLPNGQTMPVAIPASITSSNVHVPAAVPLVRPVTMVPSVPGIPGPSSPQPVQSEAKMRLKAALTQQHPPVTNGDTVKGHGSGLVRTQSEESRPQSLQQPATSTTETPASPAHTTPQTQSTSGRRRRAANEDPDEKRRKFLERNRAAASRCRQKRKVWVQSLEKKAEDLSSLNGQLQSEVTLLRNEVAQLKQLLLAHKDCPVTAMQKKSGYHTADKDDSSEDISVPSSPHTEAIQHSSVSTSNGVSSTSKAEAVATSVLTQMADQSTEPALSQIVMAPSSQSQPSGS

Measured: in vitro kinase assay with gamma-32P ATP: phosphorylation of heterologous substrate

myelin basic protein, sequence (P02687 whole entry): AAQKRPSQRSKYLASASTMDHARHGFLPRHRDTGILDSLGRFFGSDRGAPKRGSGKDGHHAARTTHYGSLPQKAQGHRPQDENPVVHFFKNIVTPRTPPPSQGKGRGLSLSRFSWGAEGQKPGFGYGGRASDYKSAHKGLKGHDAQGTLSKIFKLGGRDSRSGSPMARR

B1: GST-CARK fusion protein (full length human CARK) (protein)
chain: MGNYKSRPTQTCTDEWKKKVSESYVITIERLEDDLQIKEKELTELRNIFGSDEAFSKVNLNYRTENGLSLLHLCCICGGKKSHIRTLMLKGLRPSRLTRNGFTALHLAVYKDNAELITSLLHSGADIQQVGYGGLTALHIATIAGHLEAADVLLQHGANVNIQDAVFFTPLHIAAYYGHEQVTRLLLKFGADVNVSGEVGDRPLHLASAKGFLNIAKLLMEEGSKADVNAQDNEDHVPLHFCSRFGHHDIVKYLLQSDLEVQPHVVNIYGDTPLHLACYNGKFEVAKEIIQISGTESLTKENIFSETAFHSACTYGKSIDLVKFLLDQNVININHQGRDGHTGLHSACYHGHIRLVQFLLDNGADMNLVACDPSRSSGEKDEQTCLMWAYEKGHDAIVTLLKHYKRPQDELPCNEYSQPGGDGSYVSVPSPLGKIKSMTKEKADILLLRAGLPSHFHLQLSEIEFHEIIGSGSFGKVYKGRCRNKIVAIKRYRANTYCSKSDVDMFCREVSILCQLNHPCVIQFVGACLNDPSQFAIVTQYISGGSLFSLLHEQKRILDLQSKLIIAVDVAKGMEYLHNLTQPIIHRDLNSHNILLYEDGHAVVADFGESRFLQSLDEDNMTKQPGNLRWMAPEVFTQCTRYTIKADVFSYALCLWEILTGEIPFAHLKPAAAAADMAYHHIRPPIGYSIPKPISSLLIRGWNACPEGRPEFSEVVMKLEECLCNIELMSPASSNSSGSLSPSSSSDCLVNRGGPGRSHVAALRSRFELEYALNARSYAALSQSAGQYSSQGLSLEEMKRSLQYTPIDKYGYVSDPMSSMHFHSCRNSSSFEDSS
phosphorylated: GST-ATF2 | myelin basic protein | H1 histone | Phas-1 (4E-BP-1)

B2: GST-CARK-KD fusion protein (CARK kinase domain, amino acid residues 424 to 835 of SEQ ID NO:2) (protein)
chain: SYVSVPSPLGKIKSMTKEKADILLLRAGLPSHFHLQLSEIEFHEIIGSGSFGKVYKGRCRNKIVAIKRYRANTYCSKSDVDMFCREVSILCQLNHPCVIQFVGACLNDPSQFAIVTQYISGGSLFSLLHEQKRILDLQSKLIIAVDVAKGMEYLHNLTQPIIHRDLNSHNILLYEDGHAVVADFGESRFLQSLDEDNMTKQPGNLRWMAPEVFTQCTRYTIKADVFSYALCLWEILTGEIPFAHLKPAAAAADMAYHHIRPPIGYSIPKPISSLLIRGWNACPEGRPEFSEVVMKLEECLCNIELMSPASSNSSGSLSPSSSSDCLVNRGGPGRSHVAALRSRFELEYALNARSYAALSQSAGQYSSQGLSLEEMKRSLQYTPIDKYGYVSDPMSSMHFHSCRNSSSFEDSS
phosphorylated: GST-ATF2 | myelin basic protein | H1 histone | Phas-1 (4E-BP-1)
